The values below are quoted from earlier work in article PMC5135002.

pKd: −log10 of the molar value.

The data set addresses CYLD USP (Homo sapiens) (UniProt Q9NQC7).
UniProt Q9NQC7, sequence (Q9NQC7 589-953): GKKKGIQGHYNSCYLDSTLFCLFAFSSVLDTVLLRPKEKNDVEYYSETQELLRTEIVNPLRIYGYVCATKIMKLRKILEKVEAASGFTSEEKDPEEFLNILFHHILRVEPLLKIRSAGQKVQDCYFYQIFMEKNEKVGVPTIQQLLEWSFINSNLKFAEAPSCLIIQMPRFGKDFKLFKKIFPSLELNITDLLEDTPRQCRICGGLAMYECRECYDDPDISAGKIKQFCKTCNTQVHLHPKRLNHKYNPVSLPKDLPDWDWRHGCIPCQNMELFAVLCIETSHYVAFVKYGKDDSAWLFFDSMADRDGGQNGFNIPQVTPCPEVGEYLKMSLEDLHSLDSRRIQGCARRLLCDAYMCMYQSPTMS

In the case of SPATA2 PUB (from UniProt Q9UM82), the pKd is 8.00.
